One block for each molecule: values may come before it.
Tests used:
Type in all cases: biochemical
[1] = Dehydrogenase assay of protein extracts, oxidation of NADPH or NADH at 340 nm; settings: 1.5 mM succinic semialdehyde; for activity with NADH as electron donator: 0.5 mM NADH; for specific activity: 0.5 mM NADPH, pH 7.2, room temperature, protein extract
Protocol: Plasmids pTrcEtp and pTrcAds were retransformed into TOP10 cells and freshly plated transformants were used in gene expression studies. In addition, the pTrcHis-TOPO/lacZ plasmid (Invitrogen) was also transformed into TOP10 cells to be used as a negative control in expression experiments. Freshly transformed Escherichia coli colonies containing pTrcEtp, pTrcAds or pTrcHis-TOPO/lacZ were inoculated into 2 mL of LB liquid media containing ampicillin (100 μg/mL) and grown at 37° C. for 5 h. These were then transferred to 100 mL of LB liquid media containing ampicillin (100 μg/mL) and cultures were grown overnight at room temperature. The next morning, the cultures were diluted to an OD600 nm of 0.2 and were grown at room temperature until the OD600 nm reached 0.8. IPTG was added to the cultures to a concentration of 0.4 mM and cultures were grown for an additional 3 h at room temperature. The cultures were then centrifuged at 10,000× g for 15 min, the supernatant was decanted and the resulting pellet was resuspended in 2 mL of breakage buffer (100 mM HEPES, pH 7.2; 10 % glycerol; 1 mM AEBSF; 1 μg/mL leupeptin; and 1 μg/mL pepstatin). Cells were broken by passage two times through a french press and the resulting extract was centrifuged at 16,000× g for 15 min at 4° C. The supernatant was carefully removed (soluble protein) and the pellet was resuspended in 1 mL of breakage buffer. An additional 1 mL of breakage buffer containing 12 mM CHAPS was added and after mixing and incubation on ice for 30 min, the mixture was centrifuged at 16,000× g for 15 min at 4° C. The supernatant was carefully removed (CHAPS soluble protein) and the pellet was resuspended in 2 mL of breakage buffer (insoluble protein).
Protein extracts (soluble, CHAPS soluble and insoluble) from TOP10 cells containing pTrcEtp, pTrcAds and pTrcHis-TOPO/lacZ were assayed by measuring the oxidation of NADPH or NADH using the decrease in absorbance at 340 nm (Hearl et al., J. Biol. Chem. 260:16361-16366 (1985)). Assays contained 100 mM potassium phosphate (pH 7.2), 10% glycerol, 1.5 mM succinic semialdehyde, 0.5 mM of either NADPH or NADH and from 10 μg-400 μg of enzyme extract in a total volume of 1 mL. Assays were initiated by addition of succinic semialdehyde and were measured at room temperature. Protein concentrations of each extract were determined using the BioRad protein assay (Biorad). Protein extracts were also analyzed by SDS-PAGE.

[2] = Kinetic analysis of purified dehydrogenases with succinatesemialdehyde and NADPH; settings: purified enzyme 3 μg/mL, succinatesemialdehyde 0.1-30 mM, 0.5 mM NADPH, pH 7.0
Protocol: Cultures were grown at 37° C. for 5 h and then were transferred to 100 mL of LB liquid media containing ampicillin (100 μg/mL). These were grown overnight at room temperature. The next morning, 50 mL of each culture was transferred to 1 L of LB and grown at room temperature until the OD600 nm reached 0.8. IPTG was added to the cultures to a concentration of 0.4 mM and cultures were grown for an additional 4 h at room temperature. The cultures were then centrifuged at 10,000× g for 15 min, the supernatant was decanted and the resulting pellet was resuspended in 10 mL of breakage buffer (100 mM HEPES, pH 7.2; 10 % glycerol; 1 mM AEBSF; 1 μg/mL leupeptin; and 1 μg/mL pepstatin). Cells were broken by passage two times through a french press and the resulting extract was centrifuged at 16,000× g for 15 min at 4° C. The supernatant was carefully removed and 40 mL of Ni loading buffer (20 mM sodium phosphate, pH 7.5; 10 mM immidazole; 500 mM sodium chloride) was added. Proteins were loaded onto a 5 mL Hitrap chelating column (Pharmacia, Inc.) pre-equilibrated with 100 mM nickel sulfate and washed with 20 mL of loading buffer. Another wash with 50 mL of loading buffer containing 60 mM immidazole was carried out and bound proteins were eluted with a gradient of loading buffer containing immidazole from 60 mM to 1000 mM. All fractions were analyzed by SDS-PAGE.
(§1) All proteins eluted at around 120 mM immidazole. Purified proteins from pTrcAds and pTrcEtp were assayed with succinatesemialdehyde and NADPH as described above. […] Assays contained 0.5 mM NADPH, 100 mM sodium phosphate (pH 7.0), 1 mg/mL BSA, succinatesemialdehyde and enzyme in 200 μL total. Assays were carried out at various concentrations of succinatesemialdehyde (0.1-30 mM) using 3 μg/mL of each enzyme. Under these conditions, the kinetic parameters for the Arabidopsis dehydrogenase (kcat=1290 min-1, KM=4 mM) and the Tulip dehydrogenase (kcat=1200 min^−1, KM=3 mM) were determined. The ablility of each enzyme to reduce to α-methylenesuccinatesemialdehyde to α-methylene-γ-hydroxybutyrate was assessed in a coupled assay. The GABT protein from E. coli, purified as described above, was used to generate α-methylenesuccinatesemialdehyde from α-methylene-γ-aminobutyrate. This assay was carried out in the presence or absence of the Arabidopsis and Tulip dehydrogenase. […] To this was added either the Arabidopsis or Tulip protein (20 μg/mL and 3 μg/mL) or no additional protein as negative control. Assays were incubated at room temperature for 30 min and the reaction was stopped with 10% HCl. Acidification of the assay also served to partially convert α-methylene-γ-hydroxybutyrate to α-methylene-γ-butyrolactone (MBL). […] Compounds were detected with a Waters 9600 PDA detector. […]

[3] = Coupled assay with purified GABT: reduction of α-methylenesuccinatesemialdehyde, MBL detected by HPLC; settings: coupled with 100 μg GABT, 1 mM α-methylene-γ-aminobutyrate, 0.5 mM NADPH, room temperature, 30 min
Protocol: as §1

activity with NADH as electron donator [1]: no activity
B1: GHBD2: γ-hydroxybutyrate dehydrogenase homolog from Arabidopsis (SEQ ID NO: 16), expressed from pTrcAds (protein)
chain: MEVGFLGLGIMGKAMSMNLLKNGFKVTVWNRTLSKCDELVEHGASVCESPAEVIKKCKYTIAMLSDPCAALSVVFDKGGVLEQICEGKGYIDMSTVDAETSLKINEAITGKGGRFVEGPVSGSKKPAEDGQLIILAAGDKALFEESIPAFDVLGKRSFYLGQVGNGAKMKLIVNMIMGSMMNAFSEGLVLADKSGLSSDTLLDILDLGAMTNPMFKGKGPSMNKSSYPPAFPLKHQQKDMRLALALGDENAVSMPVAAAANEAFKKARSLGLGDLDFSAVIEAVKFSRE
modifications: Arabidopsis
specific activity [1]: 0.097 μmol/min^−1/mg^−1
Km [2]: 4 mM
kcat [2]: 1290 min⁻¹
conversion of α-methylenesuccinatesemialdehyde [3]: could convert

activity with NADH as electron donator [1]: no activity
B2: GHBD1: γ-hydroxybutyrate dehydrogenase homolog from tulip pistil (SEQ ID NO: 14), expressed from pTrcEtp (protein)
chain: MEVGFLGLGIMGKAMAVNLLRSGFRVTVWNRTLSKCNELLEQGASVGETPAAVIKKCKYTIAMLSDPSAALSVVFDKDGVLEHMSSGKGYIDMSTVDAVTSSKISEAITQKGGHFLEAPVSGSKKPAEDGQLVILAAGEKALYEEIIPAFEVLGKKSFFLGQVGNGANMKLIVNMIMGSMMNALSEGLSLAGKSGLEQKTLLDVLDLGAIANPMFKLKGPAMIQNNHPPAFPLKHQQKDMRLALALGDENAVSMPVAAAANEAFKKARSLGLGDLDFSAVYEVLKYGDAS
modifications: tulip pistil
specific activity [1]: 0.14 μmol/min^−1/mg^−1
Km [2]: 3 mM
kcat [2]: 1200 min⁻¹
conversion of α-methylenesuccinatesemialdehyde [3]: could convert

— patent US20030170653A1, “Biological method for the production of tuliposide A and its intermediates” (priority 2001, published 2003)
